Experiments:
crystal structure = molecular target: the molecule itself; experiment: crystal structure
[1] = molecular target: T1, Sulfolobus islandicus PilT N-terminal-domain-containing ATPase (SisPINA), untagged (Sulfolobus islandicus REY15A, UniProt F0NID4 1-505); experiment: pull-down
T1 sequence (looked up): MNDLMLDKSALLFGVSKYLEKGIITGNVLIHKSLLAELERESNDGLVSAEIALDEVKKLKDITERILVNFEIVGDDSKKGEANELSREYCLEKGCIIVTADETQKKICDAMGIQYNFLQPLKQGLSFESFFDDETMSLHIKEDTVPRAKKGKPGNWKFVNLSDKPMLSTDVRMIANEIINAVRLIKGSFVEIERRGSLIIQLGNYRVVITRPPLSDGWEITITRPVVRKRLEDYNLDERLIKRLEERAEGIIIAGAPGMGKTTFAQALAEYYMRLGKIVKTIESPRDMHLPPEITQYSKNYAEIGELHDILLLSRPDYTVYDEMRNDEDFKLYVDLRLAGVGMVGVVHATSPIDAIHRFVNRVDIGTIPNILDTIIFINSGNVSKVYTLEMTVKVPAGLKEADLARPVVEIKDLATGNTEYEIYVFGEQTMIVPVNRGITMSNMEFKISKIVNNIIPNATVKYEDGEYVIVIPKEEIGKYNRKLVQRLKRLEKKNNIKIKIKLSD

Binder	stoichiometry N (crystal structure)	binding result [1]
SisPINAK261A, Walker A mutant of SisPINA (enzyme, Sulfolobus islandicus REY15A, UniProt F0NID4 1-505, looked up) MNDLMLDKSALLFGVSKYLEKGIITGNVLIHKSLLAELERESNDGLVSAEIALDEVKKLKDITERILVNFEIVGDDSKKGEANELSREYCLEKGCIIVTADETQKKICDAMGIQYNFLQPLKQGLSFESFFDDETMSLHIKEDTVPRAKKGKPGNWKFVNLSDKPMLSTDVRMIANEIINAVRLIKGSFVEIERRGSLIIQLGNYRVVITRPPLSDGWEITITRPVVRKRLEDYNLDERLIKRLEERAEGIIIAGAPGMGATTFAQALAEYYMRLGKIVKTIESPRDMHLPPEITQYSKNYAEIGELHDILLLSRPDYTVYDEMRNDEDFKLYVDLRLAGVGMVGVVHATSPIDAIHRFVNRVDIGTIPNILDTIIFINSGNVSKVYTLEMTVKVPAGLKEADLARPVVEIKDLATGNTEYEIYVFGEQTMIVPVNRGITMSNMEFKISKIVNNIIPNATVKYEDGEYVIVIPKEEIGKYNRKLVQRLKRLEKKNNIKIKIKLSD	6	
N-terminal His-tagged SisHjc (enzyme, Sulfolobus islandicus REY15A, UniProt F0NID3 1-143, looked up) MNAKKRKGSAVERNIVGKLRDKGFAVVRAPASGSKRKDPIPDIIALKSGVIILIEMKSRKDKEGKIYVRREQAEGIMEFARKSGGTLFLGVKKPGVLKFIPFDKLRRTETGNYVADSEIEGLDLEDLVRLVEAKVSKTLDNFL		binds
